Experiment [1] has as its target T1, Pf12p D1D2 (Plasmodium falciparum, UniProt C6KSX1).
T1 construct: also called recombinant Pf12p; untagged Pf12p D1D2; source: Sf21 insect cells (baculovirus, secreted), purified (Ni-NTA, TEV cleavage, SEC); not shown: His8, N-terminal, cleaved
The experiment can be described thus: BLI; Octet RED96e; nanobodies (5 ug/ml) loaded on Ni-NTA sensors; untagged Pf12p D1D2 6-200 nM in solution (13-400 nM for A10); PBS pH 7.4, 0.1% BSA, 0.05% Tween-20, 25 C; global 1:1 fit; mean of three experiments. The note with it: both partners purified.

Experiment [2] addresses T2, Pf41 D1D2 (Plasmodium falciparum, UniProt Q8I1Y0).
T2 construct: Pf41, 6-cysteine protein of Plasmodium falciparum, residues K21-S368 (domains D1 and D2); The Pf41 of the ELISA and of the SEC study; also called recombinant Pf41; source: Sf21 insect cells (baculovirus), purified following the protocol of Pf12p with some modifications
The experiment can be described thus: ELISA; MaxiSorp wells coated with 65 nM recombinant protein (Pf12p D1D2, Pf12p D2, Pf12 or Pf41) in PBS; 65 nM nanobody, 1 h at RT; bound nanobody detected with mouse anti-His and HRP-conjugated anti-mouse; duplicates. To be noted: both partners purified. For orientation: ELISA stands for enzyme-linked immunosorbent assay.

For experiment [3], the target named is T3, Pf12 D1D2 (Plasmodium falciparum, UniProt C6KSX0).
T3 construct: Pf12, 6-cysteine protein of Plasmodium falciparum, residues N28-S304 (domains D1 and D2); Called untagged for the BLI; also called untagged Pf12 D1D2; recombinant Pf12; source: Sf21 insect cells (baculovirus), purified following the protocol of Pf12p with some modifications; not shown: His8, N-terminal, cleaved
The experiment is described as above. To be noted: both partners purified.

The target of experiment [4] is T1, Pf12p D1D2. The experiment can be described thus: far-Western, overlay or dot blot; purified Pf12p D1D2 run on 4-12% Bis-Tris SDS-PAGE under reduced and non-reduced conditions, blotted on PVDF, probed with 0.5 ug/ml nanobody, detected with HRP-conjugated goat anti-llama IgG. The note with it: both partners purified.
For experiment [5], the target named is T4, Pf12p D2 (Plasmodium falciparum (3D7 entry …, UniProt C6KSX1)).
T4 construct: Pf12p, 6-cysteine protein of Plasmodium falciparum, amino acids N168-S341: the C-terminal domain D2 only; Same vector and protocol as Pf12p D1D2; source: Sf21 insect cells (baculovirus, secreted), purified (Ni-NTA, TEV cleavage, SEC); not shown: His8, N-terminal, cleaved
Kind of experiment: ELISA; MaxiSorp wells coated with 65 nM recombinant protein (Pf12p D1D2, Pf12p D2, Pf12 or Pf41) in PBS; 65 nM nanobody, 1 h at RT; bound nanobody detected with mouse anti-His and HRP-conjugated anti-mouse; duplicates. To be noted: both partners purified.

The target in experiment [6] is T1, Pf12p D1D2. The experiment is described as above. To be noted: both partners purified.
In experiment [7] the target is T5, His-tagged Pf41 (Plasmodium falciparum, UniProt Q8I1Y0 21-368).
T5 construct: Pf41, 6-cysteine protein of Plasmodium falciparum, residues K21-S368 (domains D1 and D2); The form loaded on Ni-NTA sensors for BLI; a TEV site stands between the His8 tag and Pf41; also called immobilized Pf41; source: Sf21 insect cells (baculovirus), purified following the protocol of Pf12p with some modifications; not shown: His8, N-terminal, kept
T5 sequence: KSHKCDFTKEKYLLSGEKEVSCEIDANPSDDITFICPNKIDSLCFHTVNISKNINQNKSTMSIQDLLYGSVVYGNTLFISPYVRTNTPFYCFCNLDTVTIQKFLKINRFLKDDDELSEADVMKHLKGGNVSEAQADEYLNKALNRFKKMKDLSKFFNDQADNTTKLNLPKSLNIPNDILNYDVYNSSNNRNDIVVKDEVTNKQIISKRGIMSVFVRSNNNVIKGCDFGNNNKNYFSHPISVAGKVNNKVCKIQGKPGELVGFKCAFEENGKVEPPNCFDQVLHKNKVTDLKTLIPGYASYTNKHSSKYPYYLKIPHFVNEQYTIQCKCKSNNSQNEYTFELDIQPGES
Kind of experiment: BLI; His-tagged Pf41 (10 or 20 ug/ml) loaded on Ni-NTA sensors; untagged Pf12 D1D2 or untagged Pf12p D1D2 in solution, 16-500 nM or 31-1000 nM; PBS pH 7.4, 0.1% BSA, 0.05% Tween-20, 25 C; 1:1 fit. To be noted: both partners purified.

Experiment [8] concerns the target Nine out of 10 nanobodies (alpaca). Kind of experiment: BLI; Octet RED96e; nanobodies (5 ug/ml) loaded on Ni-NTA sensors; untagged Pf12p D1D2 6-200 nM in solution (13-400 nM for A10); PBS pH 7.4, 0.1% BSA, 0.05% Tween-20, 25 C; global 1:1 fit; mean of three experiments. A general note: In BLI a coated tip is dipped into the sample, and binding shifts an interference pattern.

From article PMC7886318, “Nanobody generation and structural characterization of Plasmodium falciparum 6-cysteine protein Pf12p” (Biochemical Journal, 2021) come the findings set out here.

B1: nanobody B12 (VHH)
VHH: QVQLQESGGGLVQAGGSLRLSCAASGRTFSSLTMGWFRQAPGKEREFVAGNAWNWSDGTTYYADSVRGRFTISRDNAKKTVYLQMNSLKPEDTAVYYCACAGDRPRVRVPVNSNDYDYWGQGTQVTVSS
notes: From a phage library (pMES4 phagemid) of an alpaca immunized with Pf12p D1D2; source: E. coli WK6, periplasmic extract, purified (HisTrap, SEC)
For B1, the figures for the binding result in experiment [1], in experiment [2] and in experiment [3] were “binds”, “no binding (tested: 65 nM)” and “no binding (tested: 65 nM)”, respectively.

B2: nanobody F7 (VHH)
VHH: QVQLQESGGGLVQPGGSLRLSCAASGSAFSRVAMGWYRQAPGKLREYVADITYGGATDYADSVKGRFTISRDNAKNTIYLQMDSLKPEDTAVYYCNLVPPIGGYWGQGTQVTVSS
notes: as for B1
Regarding B2, the binding result is on record as “binds” in experiment [4], “no binding (tested: 65 nM)” in experiment [2], “binds” in experiment [5] and “no binding (tested: 65 nM)” in experiment [3].

B3: nanobody H7 (VHH)
VHH: QVQLQESGGGLVQAGGSLRLSCAASGRTSSSYAVAWFRQAPGKERQFVATIGYDGVTSYYEDSVEGRFTISRDNAKSMVYLQMNSLKPEDTAVYYCGRDRVPGHTWLARPSQADFGSWGQGTQVTVSS
notes: as for B1
Take B3: the binding result in experiment [2] is “no binding (tested: 65 nM)”; in experiment [5], “binds”; in experiment [6], “binds”; in experiment [3], “no binding (tested: 65 nM)”.

B4: nanobody A10 (VHH)
VHH: QVQLQESGGGLVQPGGSLRLSCAASGIIFSSNTMGWYRQAPGKQRELVASFSGETGANYADSVKGRFIIRRDNAKNAVYLLMNSLKPDDTAAYYCHADRFGTDYWGQGTQVTVSS
notes: as for B1
As a reminder, the Kd is the concentration at which binding is half-saturated. Read a low Kd as a tighter complex. Molecule B4 yielded a Kd in experiment [1] of approximately 105 nM. Further, the binding result in experiment [2] and in experiment [3] was “no binding (tested: 65 nM)” each time.

B5: nanobody G6 (VHH)
VHH: QVQLQESGGGLVQPGGSLRLSCEVSGSIFSIDAMAWYRQAPGKQRELVAAILSGGSTNYADSVKGRFAISRDNAKNTGYLQMNSLKPEDTAVYYCNAEGRVSGWGPTEYDYWGQGTQVTVSS
notes: as for B1
Take B5: the binding result is recorded as “binds” in experiment [1], “no binding (tested: 65 nM)” in experiment [2], “binds” in experiment [5] and “no binding (tested: 65 nM)” in experiment [3].

B6: nanobody D9 (VHH)
VHH: QVQLQESGGGLVQPGGSLRLSCAASGIIFSSHVMGWYRQAPGKQRELVASFSGDTGAKYADSVKGRFIIRRENAKNMVTLYLQMNSLKPEDTAAYYCHVDRFGTEYWGQGTQVTVSS
notes: as for B1
In the case of B6, the binding result is “binds” in experiment [1], “no binding (tested: 65 nM)” in experiment [2] and “no binding (tested: 65 nM)” in experiment [3].

B7: Pf12 D1D2 (domain or fragment, Plasmodium falciparum, UniProt C6KSX0 28-304, looked up)
chain: NLTCDFNDVYKLEFHPNQQTSVTKLCNLTPNVLEKVTIKCGSDKLNYNLYPPTCFEEVYASRNMMHLKKIKEFVIGSSMFMRRSLTPNKINEVSFRIPPNMMPEKPIYCFCENKKTITINGSNGNPSSKKDIINRGIVEIIIPSLNEKVKGCDFTTSESTIFSKGYSINEISNKSSNNQQDIVCTVKAHANDLIGFKCPSNYSVEPHDCFVSAFNLSGKNENLENKLKLTNIIMDHYNNTFYSRLPSLISDNWKFFCVCSKDNEKKLVFTVEASISS
notes: Pf12, 6-cysteine protein of Plasmodium falciparum, residues N28-S304 (domains D1 and D2); Called untagged for the BLI; also called untagged Pf12 D1D2; recombinant Pf12; source: Sf21 insect cells (baculovirus), purified following the protocol of Pf12p with some modifications; not shown: His8, N-terminal, cleaved
B7: the Kd in experiment [7] is 144 ± 22.6 nM.

B8: nanobody B9 (VHH)
VHH: QVQLQESGGGLVQAGGSLRLSCTASGRTFSNTVMGWFRQAPGKEREFLAHILWSGGLAYYADSVKGRFTISRDNAKNIVYLQMNSLKPEDTAVYYCAARDFGFGNNYDYWGQGTQVTVSS
notes: From a phage library (pMES4 phagemid) of an alpaca immunized with Pf12p D1D2; also called Nb B9; source: E. coli WK6, periplasmic extract, purified (HisTrap, SEC)
As to B8, the binding result is given as “binds” in experiment [1], “no binding (tested: 65 nM)” in experiment [2], “binds” in experiment [5] and “no binding (tested: 65 nM)” in experiment [3].

B9: Pf12p D1D2 (domain or fragment)
chain: NGVCDFSSEGLSLLPEEKLDFSVSRNVDKLSDENNVRHCVHFSKGFEYLRFICPMRKDNYEGIEIRPVECFEYIHIEGREHKLSEILKGSLYEKSINDNIMTRDVFIPPTIYEDMFFECTCDNSLTFKNNMIGIRGIMKIHLKKNILYGCDFDHDEKLMKNKTAFTNFYDKQKILPLIGNNNNDDDNNDDDNNNDNNNNDNNNNNNNNNNNNNNNNNNNITCNVTIKKSQVYLGIICPDGYTLYPNDCFKNVIYDNNIIIPLKKIIPHDILYHQDKNKRITFASFTLNINENPPGFTCYCIKDQTNINNPLIVNFHFS
By kon is commonly meant the second-order rate constant of association. In experiment [8], B9 returned a dissociation constant Kd of 3 nM and an association rate constant (kon) of 100000 M⁻¹ s⁻¹.

B10: nanobody B2 (VHH)
VHH: QVQLQESGGGLVQPGGSLRLSCAASGSAFSRVAMGWYRQAPGKLREYVADITRGGTTDYADSVKGRFTISRDNAKNTIYLQMDSLKPEDTAVYYCNLVPPIRGGYWGQGTQVTVSS
notes: as for B1
Consider B10, for which the binding result in experiment [4] is reported as “binds”; in experiment [2], “no binding (tested: 65 nM)”; in experiment [5], “binds”; in experiment [3], “no binding (tested: 65 nM)”.

B11: nanobody C12 (VHH)
VHH: QVQLQESGGGLVQPGGSLRLSCAASGSAFSRVAMGWYRQAPGKLREYVADITRGGTTDYADSVKGRFTISRDNAKNTVFLQMDSLKPEDTAVYYCNSVPPIRGGYWGQGTQVTVSS
notes: as for B1
With B11, the binding result in experiment [4] was “binds”; in experiment [2], “no binding (tested: 65 nM)”; in experiment [5] it was “binds”; in experiment [3] it was “no binding (tested: 65 nM)”.

B12: nanobody C4 (VHH)
VHH: QVQLQESGGGLVQPGESLRLSCAASTSIFTVYTMGWYRQAPGKLREWVADVTVGDNRDYVDSVKGRFTISRDNATNTVYLQMNNVKPEDTAVYYCNRVPPGPSGSWGQGTQVTVSS
notes: as for B1
Consider B12, for which the binding result is recorded as “binds” in experiment [1], “no binding (tested: 65 nM)” in experiment [2], “binds” in experiment [5] and “no binding (tested: 65 nM)” in experiment [3].
